Assay [1] addresses microtubules (porcine brain tubulin, taxol-stabilized) (porcine) (UniProt P02550). Description: co-sedimentation; high-speed cosedimentation; 1 uM tubulin (MTs) with 1-12 uM FH1FH2; bound against free protein fitted with a hyperbolic function; methods in the supplement.
Assay [2] has as its target actin filaments (rabbit muscle actin, polymerized) (rabbit) (UniProt P68135). As to the kind of experiment: co-sedimentation; high-speed cosedimentation; 3 uM actin (AFs) with 0.25-8 uM FH1FH2; bound against free protein fitted with a hyperbolic function; three independent experiments; methods in the supplement.

Chain of OsFH15 FH2 (truncated recombinant protein containing the FH2 domain of OsFH15) (Q69MT2 340-768): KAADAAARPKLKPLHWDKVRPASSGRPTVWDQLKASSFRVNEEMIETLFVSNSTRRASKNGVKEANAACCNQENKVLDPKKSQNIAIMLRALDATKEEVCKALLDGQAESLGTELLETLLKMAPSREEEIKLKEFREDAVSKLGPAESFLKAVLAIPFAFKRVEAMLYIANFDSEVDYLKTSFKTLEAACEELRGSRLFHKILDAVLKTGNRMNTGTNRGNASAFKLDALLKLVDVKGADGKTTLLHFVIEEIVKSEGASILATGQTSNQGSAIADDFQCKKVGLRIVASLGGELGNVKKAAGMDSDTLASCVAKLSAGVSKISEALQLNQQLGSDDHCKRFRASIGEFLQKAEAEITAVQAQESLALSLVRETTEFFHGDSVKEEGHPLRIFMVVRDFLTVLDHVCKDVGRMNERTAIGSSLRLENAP

Turning to “OsFH15 FH1FH2 (truncated recombinant protein containing the FH1FH2 domain of OsFH15) (domain or fragment)”, the Kd in assay [1] was determined as 1020 nM; in assay [2], 820 nM. On to “OsFH15 FH2 (truncated recombinant protein containing the FH2 domain of OsFH15) (from UniProt Q69MT2 340-768) (domain or fragment)”, for which the Kd in assay [1] came out at 1810 nM.

The values are drawn from publication PMC5529588.
